Each block holds one molecule with its values, some of them ahead of it.
Tests used:
[1] = molecular target: DDB1 (UV-DDB subunit);DDB2 (UV-DDB subunit) (human;human) (UniProt Q16531+Q92466); assay: fluorescence polarisation; settings: N at position 8 = THF abasic site
[2] = molecular target: DDB1 (human wild-type DDB1) (human, UniProt Q16531 1-1140); assay: cryo-EM structure
Chain of DDB1 (human wild-type DDB1) (Q16531 whole entry): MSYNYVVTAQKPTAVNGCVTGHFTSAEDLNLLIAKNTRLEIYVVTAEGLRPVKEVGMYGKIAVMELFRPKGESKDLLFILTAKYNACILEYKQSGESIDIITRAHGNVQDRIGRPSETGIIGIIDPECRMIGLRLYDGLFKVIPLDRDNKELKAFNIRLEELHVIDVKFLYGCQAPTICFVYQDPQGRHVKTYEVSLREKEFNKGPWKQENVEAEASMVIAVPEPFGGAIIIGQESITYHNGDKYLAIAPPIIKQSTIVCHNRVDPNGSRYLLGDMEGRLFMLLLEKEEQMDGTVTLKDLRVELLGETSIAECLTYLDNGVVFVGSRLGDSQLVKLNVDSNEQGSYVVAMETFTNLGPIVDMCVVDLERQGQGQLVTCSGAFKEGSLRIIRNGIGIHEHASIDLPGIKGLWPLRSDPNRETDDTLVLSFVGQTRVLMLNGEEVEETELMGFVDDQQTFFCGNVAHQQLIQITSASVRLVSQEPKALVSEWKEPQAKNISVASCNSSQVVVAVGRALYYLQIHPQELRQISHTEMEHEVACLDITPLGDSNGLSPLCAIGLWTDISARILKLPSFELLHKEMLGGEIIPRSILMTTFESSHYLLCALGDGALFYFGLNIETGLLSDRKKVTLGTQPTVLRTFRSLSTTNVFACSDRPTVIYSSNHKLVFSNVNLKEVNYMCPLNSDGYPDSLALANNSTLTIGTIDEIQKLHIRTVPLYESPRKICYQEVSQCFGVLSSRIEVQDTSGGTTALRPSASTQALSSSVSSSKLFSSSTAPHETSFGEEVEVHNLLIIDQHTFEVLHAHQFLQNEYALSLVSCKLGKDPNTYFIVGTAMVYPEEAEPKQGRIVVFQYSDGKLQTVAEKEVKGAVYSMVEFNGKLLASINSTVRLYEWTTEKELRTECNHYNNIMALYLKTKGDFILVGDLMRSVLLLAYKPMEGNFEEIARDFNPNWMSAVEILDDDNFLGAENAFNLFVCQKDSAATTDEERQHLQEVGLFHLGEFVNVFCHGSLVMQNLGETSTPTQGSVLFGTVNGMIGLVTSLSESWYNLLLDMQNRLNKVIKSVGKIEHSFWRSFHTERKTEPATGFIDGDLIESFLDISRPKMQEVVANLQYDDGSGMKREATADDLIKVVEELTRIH

Chain of DDB1 (UV-DDB subunit);DDB2 (UV-DDB subunit) (human;human) (Q16531 whole entry, chain 1 of 2, one chain of several): as the sequence (Q16531 whole entry) above

Molecule: AATGAATNAAGCAGG / CCTGCTTTATTCATT [Cy5-15-bp-DNA-THF]
Kd [1]: 0.15 nM

binding result [2]: binds
B1: DDB2 (human wild-type DDB2) (natural protein)
chain: MAPKKRPETQKTSEIVLRPRNKRSRSPLELEPEAKKLCAKGSGPSRRCDSDCLWVGLAGPQILPPCRSIVRTLHQHKLGRASWPSVQQGLQQSFLHTLDSYRILQKAAPFDRRATSLAWHPTHPSTVAVGSKGGDIMLWNFGIKDKPTFIKGIGAGGSITGLKFNPLNTNQFYASSMEGTTRLQDFKGNILRVFASSDTINIWFCSLDVSASSRMVVTGDNVGNVILLNMDGKELWNLRMHKKKVTHVALNPCCDWFLATASVDQTVKIWDLRQVRGKASFLYSLPHRHPVNAACFSPDGARLLTTDQKSEIRVYSASQWDCPLGLIPHPHRHFQHLTPIKAAWHPRYNLIVVGRYPDPNFKSCTPYELRTIDVFDGNSGKMMCQLYDPESSGISSLNEFNPMGDTLASAMGYHILIWSQEEARTRK
